Results: PMC4970725

Assays:
[1] = molecular target: IL-18 receptor on NK-92MI cells (human (endogenous in NK-92MI)) (UniProt Q13478)
[2] = molecular target: IL-18 (Homo sapiens) (UniProt Q14116); conditions: cited from earlier work
Chain of IL-18 (Homo sapiens) (Q14116 37-193): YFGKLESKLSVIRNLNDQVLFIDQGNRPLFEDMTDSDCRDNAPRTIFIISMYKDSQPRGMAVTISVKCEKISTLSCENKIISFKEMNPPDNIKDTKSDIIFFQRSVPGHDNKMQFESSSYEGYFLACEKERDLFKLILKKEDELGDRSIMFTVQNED

Chain of IL-18 receptor on NK-92MI cells (human (endogenous in NK-92MI)) (Q13478 19-541, chain 1 of 2): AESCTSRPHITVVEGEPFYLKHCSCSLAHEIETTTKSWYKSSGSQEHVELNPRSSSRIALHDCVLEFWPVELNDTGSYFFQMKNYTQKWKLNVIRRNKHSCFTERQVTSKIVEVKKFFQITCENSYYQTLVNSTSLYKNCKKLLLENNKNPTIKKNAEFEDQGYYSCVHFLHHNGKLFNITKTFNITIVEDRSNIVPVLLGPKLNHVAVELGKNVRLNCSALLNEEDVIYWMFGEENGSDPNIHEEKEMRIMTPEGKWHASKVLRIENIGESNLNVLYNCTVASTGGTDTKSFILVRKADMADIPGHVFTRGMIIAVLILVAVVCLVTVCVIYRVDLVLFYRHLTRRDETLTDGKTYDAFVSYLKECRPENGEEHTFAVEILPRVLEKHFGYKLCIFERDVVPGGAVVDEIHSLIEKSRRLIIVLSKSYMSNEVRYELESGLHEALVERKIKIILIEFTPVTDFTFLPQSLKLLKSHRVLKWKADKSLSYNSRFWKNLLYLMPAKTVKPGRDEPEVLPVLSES
Chain of IL-18 receptor on NK-92MI cells (human (endogenous in NK-92MI)) (O95256 20-599, chain 2 of 2, further chain): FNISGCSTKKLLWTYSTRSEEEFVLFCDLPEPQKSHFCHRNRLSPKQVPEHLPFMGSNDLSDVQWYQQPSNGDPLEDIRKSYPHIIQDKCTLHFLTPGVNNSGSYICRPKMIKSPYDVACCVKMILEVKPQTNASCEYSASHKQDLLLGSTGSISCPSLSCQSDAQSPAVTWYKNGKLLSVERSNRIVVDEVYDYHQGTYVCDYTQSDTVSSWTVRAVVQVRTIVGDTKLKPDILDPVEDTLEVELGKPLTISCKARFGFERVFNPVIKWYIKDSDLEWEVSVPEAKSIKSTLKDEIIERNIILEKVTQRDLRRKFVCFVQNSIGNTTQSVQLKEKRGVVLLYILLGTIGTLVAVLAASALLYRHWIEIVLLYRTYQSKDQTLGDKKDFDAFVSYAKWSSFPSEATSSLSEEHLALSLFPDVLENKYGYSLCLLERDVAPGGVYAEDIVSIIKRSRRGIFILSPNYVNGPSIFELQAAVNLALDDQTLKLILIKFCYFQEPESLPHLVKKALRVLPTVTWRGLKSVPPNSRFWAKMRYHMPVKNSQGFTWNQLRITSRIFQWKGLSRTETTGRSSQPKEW
Chain of IL-18BP (O95998 31-194): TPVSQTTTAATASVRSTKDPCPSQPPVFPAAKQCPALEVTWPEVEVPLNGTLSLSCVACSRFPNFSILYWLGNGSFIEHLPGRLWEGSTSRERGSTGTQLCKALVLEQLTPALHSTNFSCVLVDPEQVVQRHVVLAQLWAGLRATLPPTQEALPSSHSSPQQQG

| IFN-γ in the supernatant (ELISA) of NK-92MI cells stimulated with 0.5 ng/ml IL-12 and 12.5-200 ng mL^-1 IL-18; activity against wild-type IL-18 at 200 ng mL^-1 (times higher than wild-type IL-18) [1] | Substance | Kd [2] [nM] |
| --- | --- | --- |
| 3.9 | recombinant mature human interleukin-18 T63A (ligand) | – |
| 9.3 | recombinant mature human interleukin-18 E6K (ligand) | – |
| – | IL-18BP (from UniProt O95998) | 0.4 |
